Measurements taken from patent publication US20060223059A1.
Where two headings read alike, the source gives them in different places.

Tests used:
Boc-V-P-R-AMC [1] = tested on: T1, Boc-V-P-R-AMC
T1 sequence: VPR

Boc-A-A-P-F-AMC [2] = tested on: T2, Boc-A-A-P-F-AMC
T2 sequence: AAPF

Boc-V-P-R-AMC [3] = biological target: T3, Boc-V-P-R-AMC
T3 chain: VPR

Boc-A-A-P-F-AMC [4] = biological target: T4, Boc-A-A-P-F-AMC
T4 chain: AAPF

## trypsin
Boc-V-P-R-AMC [1]
  hydrolysis of the fluorogenic peptide (release of AMC, arbitrary fluorescence counts): Fluorescence counts increased, in a dose-dependent manner, with increased concentrations of each enzyme
  kinetic analysis, fluorescence counts at 30 sec intervals for 15 min: kallikrein 14- and trypsin-mediated hydrolysis of V-P-R-AMC increases over time

## chymotrypsin
Boc-A-A-P-F-AMC [2]
  hydrolysis of the fluorogenic peptide (release of AMC, arbitrary fluorescence counts): Chymotrypsin, as expected, effectively cleaved the peptide substrate in a dose-dependent fashion
  kinetic analysis, fluorescence counts at 30 sec intervals for 15 min: Chymotrypsin activity increases with increasing concentrations and over time

B1: recombinant kallikrein 14 (without c-myc/His epitopes) (protein)
chain: IIGGHTCTRSSQPWQAALLAGPRRRFLCGGALLSGQWVITAAHCGRPILQVALGKHNLRRWEATQQVLRVVRQVTHPNYNSRTHDNDLMLLQLQQPARIGRAVRPIEVTQACASPGTSCRVSGWGTISSPIARYPASLQCVNINISPDEVCQKAYPRTITPGMVCAGVPQGGKDSCQGDSGGPLVCRGQLQGLVSWGMERCALPGYPGVYTNLCKYRSWIEETMRDK
Boc-V-P-R-AMC [3]
  hydrolysis of the fluorogenic peptide (release of AMC, arbitrary fluorescence counts): recombinant kallikrein 14 is able to effectively cleave the trypsin substrate, V-P-R-AMC (SEQ ID NO. 30) at a similar efficiency as trypsin, the positive control
  kinetic analysis, fluorescence counts at 30 sec intervals for 15 min: kallikrein 14- and trypsin-mediated hydrolysis of V-P-R-AMC increases over time
Boc-A-A-P-F-AMC [4]
  hydrolysis of the fluorogenic peptide (release of AMC, arbitrary fluorescence counts): neither recombinant kallikrein 14 nor kallikrein 14^myc-His hydrolyzed the peptide at any of the concentrations used
  kinetic analysis, fluorescence counts at 30 sec intervals for 15 min: kallikrein 14 produces only background fluorescence counts (identical to the negative control containing substrate only) at all concentrations throughout the experiment

B2: recombinant hK14^myc-His (protein)
chain: EAEFIIGGHTCTRSSQPWQAALLAGPRRRFLCGGALLSGQWVITAAHCGRPILQVALGKHNLRRWEATQQVLRVVRQVTHPNYNSRTHDNDLMLLQLQQPARIGRAVRPIEVTQACASPGTSCRVSGWGTISSPIARYPASLQCVNINISPDEVCQKAYPRTITPGMVCAGVPQGGKDSCQGDSGGPLVCRGQLQGLVSWGMERCALPGYPGVYTNLCKYRSWIEETMRDK
Boc-V-P-R-AMC [3]
  hydrolysis of the fluorogenic peptide (release of AMC, arbitrary fluorescence counts): kallikrein 14^myc-His was not able to hydrolyze V-P-R-AMC to a significant extent and is not considered to be active
Boc-A-A-P-F-AMC [4]
  hydrolysis of the fluorogenic peptide (release of AMC, arbitrary fluorescence counts): neither recombinant kallikrein 14 nor kallikrein 14^myc-His hydrolyzed the peptide at any of the concentrations used
